Broadly, the Kd is the constant that tells how readily two partners part at equilibrium. Broadly, the koff is a measure of how fast the partners let go of each other. Usually kon stands for a measure of how fast the partners come together. The EC50 (read off the curve) is the concentration at which the effect is half-maximal. High values mean a less potent agent, low ones a more potent agent.

The record followed here is patent US20240067711A1 (MEDYTOX, published 2024).

In experiment [1] the target is T1, recombinant human VEGF165 (human, UniProt P15692-4 27-191). The experiment can be described thus: cell-based or functional assay.
Experiment [2] has as its target T1, recombinant human VEGF165. The experiment can be described thus: Octet red96E BLI, human VEGF165 amine-coupled on AR2G sensor, hexamer as analyte (0.0625-4 nM), 30° C. The method, then: (§1) Affinity for VEGF was determined as follows. Octet red96E was used, and human VEGF immobilized on the biosensor AR2G was interacted with AAA0308, AAA0589, AAA0592, and AAA0600 used as analytes, and binding and dissociation values thereof were compared and measured. As human VEGF, recombinant human VEGF165 (Sinobiological company) was used, and VEGF was immobilized on the AR2G sensor chip by an amine coupling method. At this time, the amount of VEGF used was 10 μg/ml, and the degree of coating was confirmed using a wavelength of 5 nm.
(§2) During measurement, the rotation speed was set to 100, and the temperature was measured at 30° C.
(§3) The concentration of the sample was adjusted using a kinetic buffer (Molecular Device Co.). The antibody solution of each concentration was used as a binding phase for 5 minutes, and then switched to a kinetic buffer to form a dissociation phase for 30 minutes.
Background: BLI is a label-free optical method that tracks binding on a fibre tip over time.

Experiment [3] concerns the target T2, FcγRI (R&D system company, 1257-Fc) (UniProt P12314 16-288). The experiment can be described thus: Octet; FcγRI loaded on anti-penta-His biosensor, antibody 100 nM as analyte.
The target in experiment [4] is T1, recombinant human VEGF165. Briefly: cell-based or functional assay. This is another data set of the same source.
In experiment [5] the target is human VEGF (hVEGF), isoform not stated (human, UniProt P15692-4 27-191, limits assumed). The experiment can be described thus: ELISA on coated hVEGF (500 ng/ml), detection with anti-hIgG-Fc HRP, A450. The protocol:
ELISA was performed to confirm the binding ability to VEGF. First, 100 μl of hVEGF was added to an immunoplate at a concentration of 500 ng/ml and caused to react at room temperature for 1 hour. 2% skim milk was dissolved in PBST, and then, 200 μl thereof was added onto the VEGF-coated wells and the reaction was caused to occur at room temperature for 2 hours. After the reaction, the well was washed three times using 300 μl of PBST, and then, Hz2, AAA0289, AAA0308, AAA0589, AAA0592, and AAA0600, which were purified above, were diluted starting from at a concentration of 100 ng/ml by two-fold to make a total of 11 samples. The samples were placed on the VEGF-coated well and the reaction was caused to occur at room temperature for 20 minutes. After the reaction, the well was washed three times using 300 μl of PBST, and then, anti-hIgG-Fc HRP (1:3000, Thermo) was added thereto at 100 μl/well and then reacted for 30 minutes. Then, the well was washed three times as described above, and the TMB (BioFx company) solution was added thereto at 100 μl/well to develop color at room temperature for 5 minutes. After the color development, 2N sulfuric acid was added at 50 μl/well to stop the color development, and the absorbance was measured at 450 nm, and results are shown in FIGS. 4A and 4B.
For orientation: In an ELISA, binding on a coated surface is turned into a signal by an enzyme label.

In experiment [6] the target is T2, FcγRI (R&D system company, 1257-Fc). Briefly: Octet; FcγRI loaded on anti-penta-His biosensor, antibody 100 nM as analyte, 2 min association and 2 min dissociation. The protocol:
Binding evaluation for FcγR I, II, and III was performed as follows. Octet red96E was used, and […] FcγRI(R&D system company, 1257-Fc), […] FcγRII(R&D system company, 1597-CF), and […] FcγRIII(R&D system company, […]) were each loaded on the anti-pentia his biosensor, and a signal of about 5 nm was confirmed. In order to identify the reactivity of AAA0589 and AAA0592 to FcγRI, FcγRII, and FcγRIII, binding force was measured using an antibody concentration of 100 nM as an analyte. During measurement, rpm was set to 100, and the temperature was measured at 30° C. Samples were diluted using kinetic buffer (Molecular Device Co.). The antibody solution of each concentration was used as an association phase for 2 minutes, and then converted to a kinetic buffer to form a dissociation phase for 2 minutes.

Experiment [7] deals with T1, recombinant human VEGF165. The experiment can be described thus: Octet red96E BLI, human VEGF165 amine-coupled on AR2G sensor, hexamer as analyte (0.0625-0.6 nM), 30° C. The method, then: as §1, §2, §3

T2 sequence (P12314 16-288 limits assumed): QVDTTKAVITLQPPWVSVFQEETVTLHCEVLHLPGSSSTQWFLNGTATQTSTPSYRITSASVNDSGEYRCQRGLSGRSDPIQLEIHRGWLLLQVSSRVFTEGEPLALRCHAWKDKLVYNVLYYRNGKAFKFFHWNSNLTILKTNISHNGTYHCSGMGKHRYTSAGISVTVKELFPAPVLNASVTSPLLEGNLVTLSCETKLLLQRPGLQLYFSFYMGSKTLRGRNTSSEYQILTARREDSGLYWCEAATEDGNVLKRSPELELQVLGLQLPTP
human VEGF (hVEGF), isoform not stated, sequence (P15692 other isoform, or with tags, fused parts or gaps limits assumed): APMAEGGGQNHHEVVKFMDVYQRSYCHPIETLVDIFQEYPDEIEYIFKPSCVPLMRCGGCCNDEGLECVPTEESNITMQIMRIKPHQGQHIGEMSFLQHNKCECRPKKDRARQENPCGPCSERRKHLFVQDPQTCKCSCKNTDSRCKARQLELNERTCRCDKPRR
T1 sequence (P15692 other isoform, or with tags, fused parts or gaps limits assumed): as above

B1: Hz2-F hexamer AAA0589 (antibody, human IgG1, kappa, L234A L235A)
heavy: EVQLVESGGGLVQPGGSLRLSCAVSGIDLNRYSLTWIRQAPGKGLEWVAIVGGSGVTYYANWAKGRFTISRDDSKNTLYLQMNSLRAEDTAVYYCARGSDRSAYAPDIWGQGTLVTVSSASTKGPSVFPLAPSSKSTSGGTAALGCLVKDYFPEPVTVSWNSGALTSGVHTFPAVLQSSGLYSLSSVVTVPSSSLGTQTYICNVNHKPSNTKVDKKVEPKSCDKTHTCPPCPAPEAAGGPSVFLFPPKPKDTLMISRTPEVTCVVVDVSHEDPEVKFNWYVDGVEVHNAKTKPREEQYNSTYRVVSVLTVCLQDWLNGKEYKCKVSNKALPAGIEKTISKAKGQPREPQVYTLPPSRDELTKNQVSLTCLVKGFYPSDIAVEWESNGQPENNYKTTPPVLDSDGSFFLYSKLTVDKSRWQQGNVFSCSVMHHALHNHYTQKSLSLSPGKPTLYNVSLVMSDTAGTCY
light: DIQLTQSPSSLSASVGDRVTITCQSSQSIYSNNYLAWYQQKPGKAPKLLLYQASKLASGVPSRFSGSGSGTDFTLTISSLQPEDFATYYCLGVYDDDADNAFGQGTKVEIKRTVAAPSVFIFPPSDEQLKSGTASVVCLLNNFYPREAKVQWKVDNALQSGNSQESVTEQDSKDSTYSLSSTLTLSKADYEKHKVYACEVTHQGLSSPVTKSFNRGEC
notes: also called hexameric antibody AAA0589
For B1, the “IC50 of inhibition of the VEGF-induced calcium increase in HUVEC cells” value in experiment [1] was 200 pM. Besides, in experiment [2], the Kd is less than 1 pM, the off-rate constant (koff) was less than 1e-07 s⁻¹ and the kon was 208000 M⁻¹ s⁻¹. Also, in experiment [3], the binding result is given as “no binding (tested: 100 nM)”. The “IC50 (read off the curve)” value in experiment [4] was approximately 200 pM. In experiment [5], the concentration giving a half-maximal response (EC50 (read off the curve)) was approximately 40 pM.

B2: Omal013 (positive control antibody) (antibody, human IgG1, kappa)
heavy: not shown
light: DIQLTQSPSSLSASVGDRVTITCQSSQSIYSNNYLAWYQQKPGKAPKLLLYQASKLASGVPSRFSGSGSGTDFTLTISSLQPEDFATYYCLGVYDDDADNAFGQGTKVEIKRTVAAPSVFIFPPSDEQLKSGTASVVCLLNNFYPREAKVQWKVDNALQSGNSQESVTEQDSKDSTYSLSSTLTLSKADYEKHKVYACEVTHQGLSSPVTKSFNRGEC
notes: also called positive control group
For the molecule B2, the binding result in experiment [6] is reported as “binds”.

B3: Aflibercept CL kappa hexamer AAA0600 (Fc fusion)
chain: SDTGRPFVEMYSEIPEIIHMTEGRELVIPCRVTSPNITVTLKKFPLDTLIPDGKRIIWDSRKGFIISNATYKEIGLLTCEATVNGHLYKTNYLTHRQTNTIIDVVLSPSHGIELSVGEKLVLNCTARTELNVGIDFNWEYPSSKHQHKKLVNRDLKTQSGSEMKKFLSTLTIDGVTRSDQGLYTCAASSGLMTKKNSTFVRVHEKTVAAPRTVAAPSVFIFPPSDEQLKSGTASVVCLLNNFYPREAKVQWKVDNALQSGNSQESVTEQDSKDSTYSLSSTLTLSKADYEKHKVYACEVTHQGLSSPVTKSFNRGESDKTHTCPPCPAPEAAGGPSVFLFPPKPKDTLMISRTPEVTCVVVDVSHEDPEVKFNWYVDGVEVHNAKTKPREEQYNSTYRVVSVLTVCLQDWLNGKEYKCKVSNKALPAGIEKTISKAKGQPREPQVYTLPPSRDELTKNQVSLTCLVKGFYPSDIAVEWESNGQPENNYKTTPPVLDSDGSFFLYSKLTVDKSRWQQGNVFSCSVMHHALHNHYTQKSLSLSPGKPTLYNVSLVMSDTAGTCY
As for B3, the “IC50 of inhibition of the VEGF-induced calcium increase in HUVEC cells” value in experiment [1] turned out to be 200 pM. Further, the equilibrium dissociation constant (Kd) in experiment [7] turned out to be 2.03 pM. In addition, the “IC50 (read off the curve)” value in experiment [4] was approximately 200 pM. The concentration giving a half-maximal response (EC50 (read off the curve)) in experiment [5] is approximately 40 pM.

B4: Hz2 humanized anti-VEGF antibody (monomer) (antibody, V domains shown)
VH: EVQLVESGGGLVQPGGSLRLSCAVSGIDLNRYSLTWIRQAPGKGLEWVAIVGGSGVTYYANWAKGRFTISRDDSKNTLYLQMNSLRAEDTAVYYCARGSDRSAYAPDIWGQGTLVTVSS
VL: DIQLTQSPSSLSASVGDRVTITCQSSQSIYSNNYLAWYQQKPGKAPKLLLYQASKLASGVPSRFSGSGSGTDFTLTISSLQPEDFATYYCLGVYDDDADNAFGQGTKVEIKR
Consider B4, for which the “EC50 (read off the curve)” value in experiment [5] was approximately 20 pM.

B5: Lu007-F hexamer AAA0592 (antibody, human IgG1, kappa, L234A L235A)
heavy: EVQLVESGGGLVQPGGSLRLSCAASGYDFTHYGMNWIRQAPGKGLEWVGWINTYTGEPTYAADFKRRFTFSLDTSKSTVYLQMNSLRAEDTAVYYCAKYPHYYGTSHWYFDVWGQGTLVTVSSASTKGPSVFPLAPSSKSTSGGTAALGCLVKDYFPEPVTVSWNSGALTSGVHTFPAVLQSSGLYSLSSVVTVPSSSLGTQTYICNVNHKPSNTKVDKKVEPKSCDKTHTCPPCPAPEAAGGPSVFLFPPKPKDTLMISRTPEVTCVVVDVSHEDPEVKFNWYVDGVEVHNAKTKPREEQYNSTYRVVSVLTVCLQDWLNGKEYKCKVSNKALPAGIEKTISKAKGQPREPQVYTLPPSRDELTKNQVSLTCLVKGFYPSDIAVEWESNGQPENNYKTTPPVLDSDGSFFLYSKLTVDKSRWQQGNVFSCSVMHEALHNHYTQKSLSLSPGKPTLYNVSLVMSDTAGTCY
light: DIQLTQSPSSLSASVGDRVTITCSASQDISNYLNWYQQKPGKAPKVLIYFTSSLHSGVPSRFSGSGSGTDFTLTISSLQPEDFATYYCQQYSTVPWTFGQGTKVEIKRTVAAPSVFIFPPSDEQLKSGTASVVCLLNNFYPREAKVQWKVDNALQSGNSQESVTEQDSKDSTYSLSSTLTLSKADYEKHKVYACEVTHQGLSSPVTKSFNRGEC
notes: also called Lu007 hexamer AAA0592
For B5, the “IC50 of inhibition of the VEGF-induced calcium increase in HUVEC cells” value in experiment [1] was 200 pM. In experiment [2], the Kd is less than 1 pM, the off-rate constant (koff) is less than 1e-07 s⁻¹ and the on-rate constant (kon) is 666000 M⁻¹ s⁻¹. Further, in experiment [3], the binding result is “no binding (tested: 100 nM)”. Moreover, in experiment [4], the “IC50 (read off the curve)” value is approximately 300 pM. In addition, the “EC50 (read off the curve)” value in experiment [5] was approximately 90 pM.
